Patent US20030211141A1

Biological target: integrin α7β1 on C2C12 murine myoblasts (murine) (UniProt Q61738)
Test: cell-based or functional assay

With “human recombinant βIG-H3 (Transforming Growth Factor-β Induced Gene-Human Clone 3 protein), expressed in CHO cells and purified (from UniProt Q15582 1-683) (ligand)” the C2C12 skeletal muscle cell attachment to a βIG-H3 substratum after function-perturbing anti-α7 antibody (% reduction of attachment) was 80.
